Source: the DeepSol protein solubility set

Test: soluble on expression in E. coli; label from the status in PepcDB or PDB records

Sequence | soluble on expression in E. coli
MHHHHHHSSGVDLGTENLYFQSMENFNNFYILTSKELGRGKFAVVRQCISKSTGQEYAAKFLKKRRRGQDCRAEILHEIAVLELAKSCPRVINLHEVYENTSEIILILEYAAGGEIFSLCLPELAEMVSENDVIRLIKQILEGVYYLHQNNIVHLDLKPQNILLSSIYPLGDIKIVDFGMSRKIGHACELREIMGTPEYLAPEILNYDPITTATDMWNIGIIAYMLLTHTSPFVGEDNQETYLNISQVNVDYSEETFSSVSQLATDFIQSLLVKNPEKRPTAEICLSHSWLQQWDFENLFHPEETSSSSQTQDHSVRSSEDKTSKSS | soluble
MHHHHHHSSGVDLGTENLYFQSMRTGYRVFSANSTAACTELAKRITERLGAELGKSVVYQETNGETRVEIKESVRGQDIFIIQTIPRDVNTAVMELLIMAYALKTACARNIIGVIPYFPYSKQSKMRKRGSIVCKLLASMLAKAGLTHIITMDLHQKEIQGFFSFPVDNLRASPFLLQYIQEEIPNYRNAVIVAKSPDAAKRAQSYAERLRLGLAVIHGEAQCTELDMDDGRHSPPMVKNATVHPGLELPLMMAKEKPPITVVGDVGGRIAIIVDDIIDDVESFVAAAEILKERGAYKIYVMATHGILSAEAPRLIEESSVDEVVVTNTVPHEVQKLQCPKIKTVDISLILSEAIRRIHNGESMAYLFRN | soluble
MHHHHHHSSGVDLGTENLYFQSMSRVLQAEELHEKALDPFLLQAEFFEIPMNFVDPKEYDIPGLVRKNRYKTILPNPHSRVCLTSPDPDDPLSSYINANYIRGYGGEEKVYIATQGPIVSTVADFWRMVWQEHTPIIVMITNIEEMNEKCTEYWPEEQVAYDGVEITVQKVIHTEDYRLRLISLKSGTEERGLKHYWFTSWPDQKTPDRAPPLLHLVREVEEAAQQEGPHCAPIIVHCSAGIGRTGCFIATSICCQQLRQEGVVDILKTTCQLRQDRGGMIQTCEQYQFVHHVMSLYEKQLSHQS | soluble
MHHHHHHSSGVDLGTENLYFQSMTTSLEALPTGTVLTDKSGRQWKLKSFQTRDNQGILYEAAPTSTLTCDSGPQKQKFSLKLDAKDGRLFNEQNFFQRAAKPLQVNKWKKLYSTPLLAIPTCMGFGVHQDKYRFLVLPSLGRSLQSALDVSPKHVLSERSVLQVACRLLDALEFLHENEYVHGNVTAENIFVDPEDQSQVTLAGYGFAFRYCPSGKHVAYVEGSRSPHEGDLEFISMDLHKGCGPSRRSDLQSLGYCMLKWLYGFLPWTNCLPNTEDIMKQKQKFVDKPGPFVGPCGHWIRPSETLQKYLKVVMALTYEEKPPYAMLRNNLEALLQDLRVSPYDPIGLPMVP | soluble
MHHHHHHSSRENLYFQGTLPLWIGKPGDKPPPLCGAIPASGDYVARPGDKVAARVKAVDGDEQWILAEVVSYSHATNKYEVDDIDEEGKERHTLSRRRVIPLPQWKANPETDPEALFQKEQLVLALYPQTTCFYRALIHAPPQRPQDDYSVLFEDTSYADGYSPPLNVAQRYVVACKEPK | soluble
MHIEFRHLRTIKAIHDCGGLARAADQLNITQSALSHQIKGLEDQAGVELFVRRSKPMKLSAAGMRLLRLAEQILPQVEAMQAEFSSLRDGRSGRMHIAIECHACFEWLFPVLEAFRKNWPDVDVDIRPGLAFDALPALQKEEVDLVVSSDPEEIAGVEFVELFDYNAVFVAASTHPLAAKPWVEAEDFRGETLITYPVERTRLDVFSQLLIPARVEPAQVRQVELTAVILLLVASNRGVSVLPDWVVREVKYSSDYVTRPLTETGITRRLYAAVRSEDLEKPFVQELVTLARSEARKLQSR | not soluble
MHKEKHCAVVIDCWMEKIGEVNFENKPSKFPAFVEEIRKICGTKDFVFGLEDTRGFGRNLASYLTGRKFEVKHVNPVYTSAIRLSNPIIYKDDSYDAYCVARVLRDMVDTLQDAKHEDIYWAIRQLVKRREIIVKYNVMNKNQLHSQLSYGYPSYKKFFSQIDGKSALCFWENYPSPEHIWCTTPEQIYETIKAVHQAFKIERVHAIIDMIKKDGNTQKGYQEERDTIVRNIVKDIKNNQELLKDIEKQLRKLLPQTGYKLQTMPGIDLITEAKIVSEIGDINRFPNSDKLARFMGLAPVHFSSAGKGKEERCRNGNRELNAIFHFLAIQMVAVSPSGKPRHPVFREYFEQKVKEGKNKPQALICISRTLVRLIYGMMKTKTEYRPYEKKEEEGNN | soluble
MHKSIAVFEVEGGNDKQFNGHRKDTLPIVDAIKEKGWHAEVVFYRPEWSEGLFEYVSQNFDGYISRVNPGNIPGGEKGYFDLLTKLSEAGLVGMSTPAEMMAYGAKDALVKLNDTDLVPSDTAAYYDVETFHNTFPTSLSYGERVLKQNRGSTGSGIWRVQLEDKELAASVAPGTALPLNTKLRCTEAVDNHTEIRELGEFMDFCDQYIVGDNGMLVDMRFMPRIVEGEIRILMVGPHPVFVVHKKPAAGGDNFSATLFSGAKYTYDKPEAWQELVDMFAAARPVIAEKLGGDNIPLIWTADFMLADGENGEDTYVLGEINCSCVGFTSELDMGIQELVAQEAVERVEKKHA | not soluble
MHLDRQSLEKAKHLIQSGLIDTIEVGTIKGLQEIHRFLFEGLYEFAGKIRDKNIAKGNFRFANCLYLDLILPRIESMPQNNFNQIVEKYVEMNIAHPFLEGNGRATRIWLDLLLKKELKKIVLWDRIDKAAYLSAMERSPVNDLEIKTLLKKHLSSNTNDPLTLIKGITQSYYYEGLLEHHHHHH | not soluble
MHLLPELASHHAVSIPELLVSRDERQARQHVWLKRHPVPLVSFTVVAPGPIKDSEVTRRIFNHGVTALRALAAKQGWQIQEQAALVSASGPEGMLSIAAPARDLKLATIELEHSHPLGRLWDIDVLTPEGEILSRRDYSLPPRRCLLCEQSAAVCARGKTHQLTDLLNRMEALLNDVDACNVN | not soluble
MHPRKIEIVTAAVTCFLERGYHQTGIRDIARQAGVSLGNLYNHFAGKEAVLAFIAELEGRELAAFVDMLSDPEEPYAALERFIWAYAAYAARPENALLGLELMAEALRNPTISQVFDGNRHQLVAALMGCLERGVSTGRFRHLDDTRALALMILDTLEGQGLRQLDRKTPDPDAVRTLCAVLTTGLLARDQSPPPVPCNTPCSSA | not soluble
MHRSFPRLVRSQGNLLKGMFGKSGEKEAVKQLTLEEQESLRKTLPSIRARESTQVTASADSVTEFDDDLLTMSRIDTDAIRARGFLKYTQNYVPGVDVKNQVLEAASSCLRSAGVKSENVDQYKFVEGDNSVKFELLNRLGKSIEHWPTNGKLLHLETVADVVEFYQTPVKNVTKYTEMARDENKPKNVSIMEHAARFHPEDTHMYHGGITAFPGSGGEVLSLRQKRLLRQFQPKKEWFDYDDQTFDYTRPDKNMPWDPEVANQMDKYTDKRYNLKTKQFTRIRQ | not soluble
MHSEKSVMMEPMTNPKNDPRNPDLLLDFEEVEFTRGGKTLVGPITWQVELDERWVILGPNGAGKTTLIRMAAAEEFPSKGALWIMGERIGKTDMRDLRAMIGVSSSALGNRIPTNEKVLDLVISAGYAILGRWREEYDKWDHDRAIEILEQVGAYHLADQTWGTLSEGERKRVLVARALMTNPELLLLDEPTAGMDLGGREDLVGYLAQLAMDPDAPAMVMITHHVEEIPAGFTHALLLDEGEVVSQGLIDEVLTSANLTKAFHQPIKVDKIDGRYFARRQRTARSHRR | not soluble
MHSHLIPGIDDGSKSMEESLSLIQEFKKLGYKKIITTPHIMGDFFKNSKETIFPGLIELRASIAEAGIDIEIEAAAEYYLDEWFIEKLERNEPLLKLGGNYVLFETSYMNRPTQLHQAIFLMRSLGYIPVLAHPERYTYLYEDFKLFKEIYEMDVLFQINLNSLAGYYSKTAKLYAEKLIDNNMVDFVGTDCHGQRHIDVLAKVKVSNYYQKLQKLSILNNTLIS | not soluble
MHSLFTLNLDLERAGKVICVQSLPFDTARETLLLLSPVGTQCCYMKNAALFLISHFNLIILESDTWLAYANEAGVNPEEGVADFIRQFNAALPEPVRVDALVGYCSSAPLALLAANQGACRTLLLLNGAYFLKDDGVIKSQYERDVERMMQSIPQGNCAQVYEAVSLLHTKSAYTPSDYRYQQVRPLRELSAFRQYLTFLNSLASLESVRIAQTVKTPTLVWCGSQDRYTDTASSRYIAQLLPHSELVEDPDGQHHDFVDGHERLYLTMTHFLTRHKQRAIQ | not soluble
MHSLYLGVVKVMAKIILVYANCVNSTAKGDFALAGQIAKDLVREKTSDDIDVVLTSTLDGIARFESLYGKAVDGRVIIEGTSVGLCALELFESVDNEVVAFIEANRCKYAPSDILKRVLSPDSKFLFIGAANQKAIATGDKFTKSWLYISHKGDQPNVYEHFDEDDSLIQSVGLGDDRLGLPSLPKVDELPEMNSTQSQKIPSGEYGFMYLAAVHGIDDVYLMNQYMSLTEMGQYVLVGEYAKQSKEVQMVLHSLQYKGSSVSLTMPQIFFHDSVDNCLMRNMVSKSSGPLVVSTGVMSSIEAMQDGKLTYYQTMSNNTQFVASYLIAVKSICSSDTTLFGSMPKLIIDLSNLLFAEKPLKESQMKEIKSLLGMSSVTSRLGEMNKRIIAKANGTVAGELLSFIGKPKTTQSHKQCISVCMSLRKSGETTSPIFDQALRRAAAWGRLFELKVLIASMSTSDLNKKDKTGNQYTALHWAVMQGHLDCARLLVKSGASVDIQDKSGKSPLHYAIKRGDKETIKLLVQAGASLEIMDDSGAKPCDGSESWVPEYIKSCYEKSGHKSSSLF | not soluble
MHSPDPFTDHPDSDDSFEKFVPTPNVNRRRSDAIIVSDEGSFDGITGYSQVTVIENCPNTTVLEDENKRANPDDTITRMLESSDEEDETENNSDNDALADLLKSFRTEDQKRKEVDIEQAANISIDIFGDLIEEVDSEHEAAEYPDREGGNSMDKQGTMLPVEVPIQNNIKLIPRKRRLEPKSYDCEPSTSAAHGPVGVVSSDSGEYWNQQKTITIHGQNFEINNFNDYMRMKITKLNHQVNHGYAKPLENVSRIMEGFSVFVNGYTDPPALVIRDLMISHGGEYHCYYQHGITSYTIASSIATAKINRIRENEIFIKADWITESIAAGKPLDYRDFLIYEKGSVEKGQMQQFLTISTRNTGGNNETTSSNQFSDARNPNFIRDYYARSRLHLISTLAQDMKDFVANLKLEGKLTEKCFEEKELIDMKSLSNEISRESTVFHVDLDCFFVSVAVRNRIDLKHKEVAITHSKGTISNSMSEVASCSYAARDCGVKNGMLVRDALQKCPQLTLLPYQFEDYVQVSRKIYEILASYTLEVRAVSCDEMYINMSSFCEKYEINDPTILAEHIRKVIREKTQCPASVGIGSTSLLARLATRHAKPDGVFWVNAHKKNEFISEEKVKDLPGFGYEMMNRLTSFFGDITKCRELQLKTERELVPVFGPKLASKILRQCRGIEEDPDDFWATHVRKSVSCDINYGIRFTKRGEVIQLMTAIGAELERKLIDSKLTAGSITLKLMVRSANAPIQTSKFMGHGICDTFTKTCNLNVPTTRGESLTSEAMKLYAKVSPKVEDLRGVGVTCGKLKSKLKKDAATAVQEMFGKTSRVGNMARTDEQLNIIPRNEDELDKEPVIIPAVTEDLEVQSIPRQINFRVANDIDIPEIVKSTLLNGRSDNNLELEDLEDDGLVENRLAELECIIQNEPTKESVTNLQEMLSTLLNYGKLSAFETVFRKFEEISMDSSRCDTAWFSVFHLMVPFIEEESKDLLEFPIATTRNLGAMIASNTDNTSISSPEPFVPKEVFVIDSTKHT | not soluble
MHTSILLLTALCAGAYAQFSANGQAAILNVHNTLRSRIAKGTYVAKGTAKPAASDMLKMKWDATVAASAQAYANKCPTGHSGAAGLGENLYWYWTSATITNIDQFGATGSAAWEKEFQDYGWSSNTLSMSLFNTGIGHATQMAWAKTNLIGCGVKNCGKDTNGFNKVTVVCQYKPQGNYLNQNIYTSGTTCSKCPSGTSCEAATGLCA | not soluble
